{"source": "paper PMC4227767", "about": "“Dye label interference with RNA modification reveals 5-fluorouridine as non-covalent inhibitor”", "key": {"[1]": {"molecular_target": "T1, TruB (tmTruB), tRNA pseudouridine-55 synthase (Thermotoga maritima, UniProt Q9WZW0 1-309)", "T1 sequence": "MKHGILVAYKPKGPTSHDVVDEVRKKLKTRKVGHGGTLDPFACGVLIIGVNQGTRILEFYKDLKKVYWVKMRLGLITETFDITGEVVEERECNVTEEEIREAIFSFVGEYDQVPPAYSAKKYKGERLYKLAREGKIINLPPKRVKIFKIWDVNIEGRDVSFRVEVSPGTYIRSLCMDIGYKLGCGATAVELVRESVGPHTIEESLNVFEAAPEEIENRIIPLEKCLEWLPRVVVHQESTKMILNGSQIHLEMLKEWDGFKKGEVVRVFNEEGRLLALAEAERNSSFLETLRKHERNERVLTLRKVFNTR", "assay": "fluorescence titration (spectral shifts, lifetime/anisotropy); average over three titration curves; 200 nM tRNA; 1x MST buffer (composition not in material); tRNA folded 4 min 75 C in water then cooled in buffer; MST at 25 C, 50 nM tRNA; fluorescence at 200 nM tRNA; SDS-PAGE complexes formed at 25 or 70 C", "conditions": "protein: recombinant, tRNA fold"}, "[2]": {"molecular_target": "T1, TruB (tmTruB), tRNA pseudouridine-55 …", "assay": "MST; one of three runs 1 month apart; unit cut off in the material (nM assumed); 1x MST buffer (composition not in material); tRNA folded 4 min 75 C in water then cooled in buffer; MST at 25 C, 50 nM tRNA; fluorescence at 200 nM tRNA; SDS-PAGE complexes formed at 25 or 70 C", "conditions": "protein: recombinant; label: Cy5 at U33 (internal); tRNA fold"}}}
{"binder": "C49-5FU55-tRNA (Cy5 at C49) (structured_RNA, 5-fluorouridine at position 55; 5-aminohexyl-3-acrylimido-deoxycytidine at C49) RNA: GCGGAUUUAGCUCAGUUGGGAGAGCGCCAGACUGAAGAUCUGGAGGUCCUGUGUUCGAUCCACAGAAUUCGCACCA", "values": [{"measurement": "Kd", "setting": "[1]; label: Cy5 at C49 (internal)", "value": 124, "unit": "nM"}]}
{"binder": "C49-U55-tRNA (Cy5 at C49) (structured_RNA, 5-aminohexyl-3-acrylimido-deoxycytidine at C49) RNA: GCGGAUUUAGCUCAGUUGGGAGAGCGCCAGACUGAAGAUCUGGAGGUCCUGUGUUCGAUCCACAGAAUUCGCACCA", "values": [{"measurement": "Kd", "setting": "[1]; label: Cy5 at C49 (internal)", "value": 226, "unit": "nM"}]}
{"binder": "U33-5FU55-tRNA (Cy5 at U33) (structured_RNA, 5-fluorouridine at position 55; 5-aminohexyl-3-acrylimido-uridine at U33) RNA: GCGGAUUUAGCUCAGUUGGGAGAGCGCCAGACUGAAGAUCUGGAGGUCCUGUGUUCGAUCCACAGAAUUCGCACCA", "values": [{"measurement": "Kd", "setting": "[2]", "value": 37.3, "unit": "nM"}, {"measurement": "Kd", "setting": "[1]; label: Cy5 at U33 (internal)", "value": 3.7, "unit": "nM"}]}
